For data set [1], the system named is CAGA-reporter cells (i.e F89 or 1613). The data set can be described thus: Toxic-compound control wells of the automated high throughput transcriptional screen. The data set is classed as cell-based, human. Particulars: 500 μM CPO in the presence of TGFβ.
Data set [2] has as its system renilla luciferase driven by the RSV LTR, clone F89. The data set can be described thus: Renilla luciferase specificity/toxicity control (pRc/Renilla), clone F89. Particulars: for relative renilla luciferase activities (fold induction): value 1 = absence of TGFβ. The source says:
(§1) The expression of this transgene should not be regulated by TGFβ or activin, i.e. it should not contain CAGA sequences in its regulatory regions. For instance, the renilla-luciferase gene can be transcribed from the RSV (Rous Sarcoma Virus) promoter or SV (Simian Virus 40) promoter. […] This means that an agent acting specifically through CAGA boxes-mediated transcription will have an effect on the firefly luciferase activity but not on the renilla luciferase activity.

Data set [3] relates to renilla luciferase driven by the RSV LTR, clone 1613. The data set can be described thus: Renilla luciferase specificity/toxicity control (pRc/Renilla), clone 1613. Particulars: for relative renilla luciferase activities (fold induction): value 1 = absence of TGFβ.
Text: as §1

Data set [4] deals with human PAI-1 promoter (PAI-1-Luc, clone 1613). The data set can be described thus: Human PAI-1-Luc firefly luciferase reporter, stable clone 1613. Particulars: for relative firefly luciferase activities (fold induction): value 1 = absence of TGFβ. On the technique in general: In a reporter assay the amount or activity of a reporter protein is the signal.
Description: (§2) Thus, the renilla luciferase activity can be used as an internal toxicity control.
(§3) At day 1, 40 (96 well-) microplates are seeded, using a multidrop apparatus, with CAGA-reporter cells (i.e F89 or 1613) at a concentration of 35000 cells per well in 200 μl of serum-containing medium.
(§4) 8 to 24 hours later (Day 2), microplates containing the chemical compounds to be tested, diluted in 100% DMSO, are placed in a carousel and the cell-incubation procedure is launched. The computer system coordinates then the actions of different peripheric equipments in order to incubate the cells in the presence of TGFβ with the coumpounds to be tested.
(§5) Cells and compounds microplates are moved through the robotic line to the adequate peripheries by the axial rotatable arm. Cells are washed and incubated in a serum-free medium. The pippetage station realizes different operations including preliminary dilutions in order to incubate the cells with TGFβ and the chemical compounds to be tested. The final concentration of TGFβ (rhTGFβ-1 from R & D) used in the test is 1 ng/mL and the compounds are tested at a final concentration of 10 μl in a final concentration of DMSO of 1%. Cells are incubated with the compounds to be tested 15-30 mn prior the addition of TGFβ. The final volume of the test reaction is 150 μl. Wells A1 through H10 are the test wells and contain cells incubated with the chemical agents to be tested in the presence of TGFβ. Each well contains only one singular chemical compound and allows to test its effect on CAGA-mediated transcription. Columns 11 and 12 are kept for controls. Column 11 contains 8 wells where cells are incubated in the presence of TGFβ without chemical compounds. Column 11 determines of the reference TGFβ-induced firefly luciferase value to which will be compared the values measured in the test wells to identify potential inhibitor or activator coumpounds. In wells A12 to D12, cells are grown in medium without TGFβ. The firefly luciferase value obtained with these points represents the ‘basal firefly luciferase activity’ and allows to control that the TGFβ induction is correct. In wells E12 to H12, cells are incubated in the presence of TGFβ with 500 μM CPO (Cyclopentenone, Sigma) which is a cell toxic compound. […] These points allows to control that the test is sensitive to toxic compounds.
(§6) 12 to 18 hours later (day 3), the luciferase quantification procedure is launched. The following reactions are realized using reagents of the Dual Luciferase Assay Kit from Promega. Cells are washed and lysed with the addition of 10 μl of passive lysis buffer (Promega). After 15 to 30 mn of agitation, luciferase activities of the plates are read in a dual-injector luminometer (BMG lumistar).
Data set [5] concerns CAGA box-mediated transcription ((CAGA)9MLP-Luc, clone F89). The data set can be described thus: TGFβ-responsive (CAGA)9MLP-Luc firefly luciferase reporter, stable clone F89. Particulars: for relative firefly luciferase activities (fold induction): value 1 = absence of TGFβ.
Description: as §2, §3, §4, §5, §6
The subject of data set [6] is CAGA box reporter vector in HepG2 cells.
Description: (§7) FIG. 1C: HepG2 and Mv1Lu cells were transfected with p3TP-Lux or a vector containing nine or twelve copies of the CAGA box upstream of the minimal Adenovirus Major Late Promoter (MLP). Fold inductions by TGFβ are given for HepG2 cells.
(§8) FIG. 3B: HepG2 cells were transfected with a (CAGA)12-MLP-Luc reporter construct and induced by BMP-7, activin or TGFβ (respectively 100 ng/mL, 20 ng/mL and 10 ng/mL).
(§9) HepG2 and MDA-MB468 cells were transiently transfected, with the indicated constructs and the internal control pRL-TK vector, using the calcium phosphate co-precipitation method. When increasing amounts of expression vectors were transfected, total DNA was kept constant by addition of pCMV5. Cells were serum starved for 8 h before stimulation with 7 ng/mL of human recombinant TGFβ1 (R&D) and luciferases activities were quantified 14 h later using the Dual Luciferase Assay (Promega). For activin and BMP-7 (Creative Biomolecules) induction, respectively 20 ng/mL and 100 ng/mL were used. Values were normalized with the renilla luciferase activity expressed from pRL-TK. […] Luciferase values shown in figures are representative of transfection experiments done at least three times.
The test system is the same in data set [7]. The data set can be described thus: Transient CAGA boxes-MLP-Luc reporter in HepG2 cells. Conditions: (CAGA)12-MLP-Luc, TGFβ 10 ng/mL.
Description: as §7, §8, §9

`O=C1C=CCC1` [CPO, Cyclopentenone]: in data set [1], the “firefly luciferase activity relative to TGFβ-only wells” value is listed as “around 50%” and the “renilla luciferase activity relative to TGFβ-only wells” value is listed as “around 50%”.
As for `CCOc1cc(/C=C(\C#N)C(N)=O)cc(CSc2ccccc2)c1O` [Compound A, α-cyano4-hydroxy-3-ethoxy-5-phenylthiomethyl cinnamamide], the “inhibitory effect on the renilla luciferase activities” value in data set [2] (specificity/toxicity control) and in data set [3] (specificity/toxicity control) was “not on the renilla luciferase activities” in each case. Also, the “firefly luciferase activity (value 100 = absence of compound A, 1 ng/mL TGFβ)” value in data set [4] (compound A 0.1 μM) is given as 105; in data set [4] (compound A 1 μM), 102; in data set [4] (compound A 5 μM), 65; in data set [4] (compound A 10 μM), 36; in data set [5] (compound A 0.1 μM), 98; in data set [5] (compound A 1 μM), 95. Besides, the entries for the “firefly luciferase activity (value 100 = absence of compound A, 1 ng/mL TGFβ)” value in data set [5] (compound A 5 μM) and in data set [5] (compound A 10 μM) were 86 and 23, respectively.
As to “TGFβ: human recombinant TGFβ1 (R&D), cytokine used to induce CAGA box-mediated transcription”, the “relative renilla luciferase activities (fold induction)” value in data set [2] (TGFβ 0.2 ng/mL) worked out at 1.1 fold induction; in data set [2] (TGFβ 0.5 ng/mL), 1.1 fold induction; in data set [2] (TGFβ 1 ng/mL) it was 1.2 fold induction; in data set [2] (TGFβ 5 ng/mL), 1.5 fold induction; in data set [2] (TGFβ 10 ng/mL) it was 1.8 fold induction; in data set [3] (TGFβ 0.2 ng/mL) it was 0.8 fold induction. The “relative renilla luciferase activities (fold induction)” value in data set [3] (TGFβ 1 ng/mL) worked out at 1 fold induction; in data set [3] (TGFβ 5 ng/mL) it was 1 fold induction; in data set [3] (TGFβ 10 ng/mL), 1.3 fold induction. The TGFβ-mediated fold induction entry in data set [6] is reported as “Several hundred”. For the same compound, the “fold induction of CAGA boxes containing reporter” value in data set [7] stood at 200 fold. The “relative firefly luciferase activities (fold induction)” value is reported as 8 fold induction in data set [4] (TGFβ 0.2 ng/mL); 26.2 fold induction in data set [4] (TGFβ 1 ng/mL); 43.5 fold induction in data set [4] (TGFβ 5 ng/mL); 50.1 fold induction in data set [4] (TGFβ 10 ng/mL); 6 fold induction in data set [5] (TGFβ 0.2 ng/mL); 31 fold induction in data set [5] (TGFβ 0.5 ng/mL). For the same compound, the “relative firefly luciferase activities (fold induction)” value is recorded as 109 fold induction in data set [5] (TGFβ 1 ng/mL), 461 fold induction in data set [5] (TGFβ 5 ng/mL) and 737 fold induction in data set [5] (TGFβ 10 ng/mL).
